This is an account of results in publication PMC3087300 (Bioorganic & medicinal chemistry, 2009).

For the assay, the target named is PSA (Homo sapiens, UniProt P07288).

Like-named read-outs stand apart in the source and are kept apart here.

Chain of PSA (P07288 25-261): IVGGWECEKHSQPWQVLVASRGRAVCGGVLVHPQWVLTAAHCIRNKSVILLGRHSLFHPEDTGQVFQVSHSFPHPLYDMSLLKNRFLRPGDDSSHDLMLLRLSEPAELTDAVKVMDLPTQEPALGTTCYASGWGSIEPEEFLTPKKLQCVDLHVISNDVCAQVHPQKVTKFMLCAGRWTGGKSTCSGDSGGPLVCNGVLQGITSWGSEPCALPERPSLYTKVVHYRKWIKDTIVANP

Usually Ki stands for a dissociation constant, usually derived from enzyme kinetics or from competition with a known ligand. Regarding (Re) SAAC-SSQn(boro)L [Compound 47], the Ki runs as follows: (P2-P3 screen boronic acids and PSA imaging agents, Table 2) 0.0284 ± 0.0021 µM; (read-out: Ki for PSA, boronic acid inhibitors) 0.028 µM.
